Kd data for 1 substance are collected here from article PMC8390506.

The assay concerns the target double-mutant TPX2 (2M-TPX2) (Xenopus laevis) (UniProt Q6NUF4). Briefly: BLI; Octet (ForteBio); TPX2 attached to sensors, importin concentration varied; normalized amplitudes; apparent Kd. On the technique in general: In BLI a coated tip is dipped into the sample, and binding shifts an interference pattern.

Sequence of importin-αΔIBB (truncated importin-α without the importin-β-binding domain) (domain or fragment) (P52170 71-522, stated change not applied): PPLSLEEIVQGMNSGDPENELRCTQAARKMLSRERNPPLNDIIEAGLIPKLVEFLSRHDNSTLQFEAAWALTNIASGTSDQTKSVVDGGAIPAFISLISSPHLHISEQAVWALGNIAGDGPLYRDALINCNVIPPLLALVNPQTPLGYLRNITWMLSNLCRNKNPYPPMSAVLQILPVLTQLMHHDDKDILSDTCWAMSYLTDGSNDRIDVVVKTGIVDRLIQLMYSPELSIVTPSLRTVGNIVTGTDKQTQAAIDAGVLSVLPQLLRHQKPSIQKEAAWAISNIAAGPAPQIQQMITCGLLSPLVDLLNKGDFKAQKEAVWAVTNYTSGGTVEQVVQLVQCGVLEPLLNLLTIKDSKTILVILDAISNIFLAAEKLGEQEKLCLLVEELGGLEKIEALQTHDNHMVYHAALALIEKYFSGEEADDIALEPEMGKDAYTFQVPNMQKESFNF

Consider “importin-αΔIBB (truncated importin-α without the importin-β-binding domain) (domain or fragment)”, for which the Kd worked out at 45 nM.
